The test system of one data set is T1, GST-322 fusion protein.
T1 sequence: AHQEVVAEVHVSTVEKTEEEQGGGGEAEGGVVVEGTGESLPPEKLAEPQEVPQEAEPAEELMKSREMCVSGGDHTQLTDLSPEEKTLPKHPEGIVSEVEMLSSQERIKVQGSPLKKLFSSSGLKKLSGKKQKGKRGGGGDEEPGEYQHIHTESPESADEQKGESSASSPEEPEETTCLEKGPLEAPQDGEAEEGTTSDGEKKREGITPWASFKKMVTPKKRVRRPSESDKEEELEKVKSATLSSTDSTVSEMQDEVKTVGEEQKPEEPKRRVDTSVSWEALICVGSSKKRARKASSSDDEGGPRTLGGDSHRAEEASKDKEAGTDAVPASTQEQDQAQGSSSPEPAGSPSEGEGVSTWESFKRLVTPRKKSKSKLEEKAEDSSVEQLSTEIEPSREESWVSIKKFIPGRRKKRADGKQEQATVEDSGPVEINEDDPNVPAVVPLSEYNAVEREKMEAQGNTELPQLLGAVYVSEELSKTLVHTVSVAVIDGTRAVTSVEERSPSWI

Data set [1] has as its system T2, GST-322 prephosphorylated by PKC.
T2 sequence: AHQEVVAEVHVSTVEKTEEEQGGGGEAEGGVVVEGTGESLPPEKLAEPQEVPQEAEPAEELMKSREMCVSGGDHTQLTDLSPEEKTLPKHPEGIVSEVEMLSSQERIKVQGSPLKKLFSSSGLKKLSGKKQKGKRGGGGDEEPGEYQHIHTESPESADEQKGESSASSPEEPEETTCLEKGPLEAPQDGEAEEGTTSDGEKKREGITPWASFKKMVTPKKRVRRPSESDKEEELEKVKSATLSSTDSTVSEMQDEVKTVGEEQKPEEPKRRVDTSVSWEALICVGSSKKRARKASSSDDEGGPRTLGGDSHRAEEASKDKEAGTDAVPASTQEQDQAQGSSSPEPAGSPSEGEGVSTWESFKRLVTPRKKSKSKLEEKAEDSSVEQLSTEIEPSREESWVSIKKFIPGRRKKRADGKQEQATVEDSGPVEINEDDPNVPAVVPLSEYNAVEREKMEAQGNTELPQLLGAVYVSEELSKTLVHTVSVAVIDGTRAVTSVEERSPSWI
Briefly: GST pull-down of PKC with phosphatidylserine; against the unphosphorylated fusion protein.

Data set [2] deals with T3, cyclin D1 (endogenous and ectopic) of S24, S24/D1, S24/V and V3 cells (UniProt P25322 1-295). Briefly: cell-based or functional assay.
T3 sequence (P25322 whole entry): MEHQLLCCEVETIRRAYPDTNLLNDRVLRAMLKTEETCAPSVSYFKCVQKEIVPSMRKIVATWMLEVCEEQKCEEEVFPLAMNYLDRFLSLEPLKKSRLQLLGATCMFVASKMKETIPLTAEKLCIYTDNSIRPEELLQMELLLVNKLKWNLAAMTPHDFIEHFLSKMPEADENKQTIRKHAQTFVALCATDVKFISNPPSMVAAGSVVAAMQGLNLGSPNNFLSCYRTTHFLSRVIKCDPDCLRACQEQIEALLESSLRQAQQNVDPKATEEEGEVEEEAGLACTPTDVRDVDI
Data set [3] has as its target T3, cyclin D1 (endogenous and ectopic) of …. Kind of data set: cell-based or functional assay. This is another data set of the same source.
Data set [4] addresses cyclin D1 (endogenous and ectopic) of S24, S24/D1, S24/V and V3 cells (UniProt P25322). Briefly: GST pull-down with mutated GST-SSeCKS2.

Where no end group is shown, it is not given here. [ ]: non-standard residue; d: D form. pS = N[C@@H](COP(=O)(O)O)C(=O)O

cyclin D1 (endogenous and ectopic) of S24, S24/D1, S24/V and V3 cells (UniProt P25322), sequence (P25322 whole entry): as above

Regarding purified rabbit brain PKC, the “in vitro phosphorylation by PKC ([32P]ATP, SDS-PAGE and autoradiography)” value in the data set on GST-322 fusion protein is “purified rat brain PKC containing α, β, and δ isoforms could phosphorylate GST-322 protein in vitro”. Further, in data set [1], the “fold decrease of binding after prephosphorylation by PKC” value is “Prephosphorylation of GST-322 by PKC decreases this binding at least 10-fold”. For RQIKIWFQNRRMKWKKLKKLF[pS]SSGLKKL[pS]GK (also: N-terminal biotin on half of the product) [penetratin-linked phosphoserine CY peptide], the “% of cells showing nuclear staining of cyclin D1, S24/D1, -TET, peptide 100 µg/ml for 4 h” value (“% of cells showing nuclear staining … for 4 h” for short) in data set [2] was 39%. For the molecule RQIKIWFQNRRMKWKKLKKLFSSSGLKKLSGK (also: N-terminal biotin on half of the product) [penetratin-linked wt SSeCKS CY peptide], the “increase in cyclin D translocation to nuclei, S24/D1 cells incubated 4 h with peptide” value in data set [3] was roughly 2 fold. The “% of cells showing nuclear staining … for 4 h” value in data set [2] was determined as 82%.

As for RQIKIWFQNRRMKWKKLSSSFSSSGLSSSSGK (also: N-terminal biotin on half of the product) [penetratin-linked mutated CY peptide (K→S)], the “% of cells showing nuclear staining … for 4 h” value in data set [2] worked out at 30%.

B1: GST-SSeCKS2 with upstream KK mutated to SS (protein, not shown: a dimerising Fc or GST)
chain: AHQEVVAEVHVSTVEKTEEEQGGGGEAEGGVVVEGTGESLPPEKLAEPQEVPQEAEPAEELMKSREMCVSGGDHTQLTDLSPEEKTLPKHPEGIVSEVEMLSSQERIKVQGSPLSSLFSSSGLKKLSGKKQKGKRGGGGDEEPGEYQHIHTESPESADEQKGES
B1 had a reduction of cyclin D1 binding against wild-type GST-SSeCKS2 in data set [4] of 70%.

B2: GST-SSeCKS2 with downstream KK mutated to SS (protein, not shown: a dimerising Fc or GST)
chain: AHQEVVAEVHVSTVEKTEEEQGGGGEAEGGVVVEGTGESLPPEKLAEPQEVPQEAEPAEELMKSREMCVSGGDHTQLTDLSPEEKTLPKHPEGIVSEVEMLSSQERIKVQGSPLKKLFSSSGLSSLSGKKQKGKRGGGGDEEPGEYQHIHTESPESADEQKGES
B2 had a reduction of cyclin D1 binding against wild-type GST-SSeCKS2 in data set [4] of 70%.

The values above are taken from patent US20050260693A1 (MOUNT SINAI SCHOOL OF MEDICINE, published 2005).
